Residue numbers refer to the chain shown, from its start. One block for each binder: values may come before it.
How the values were obtained:
Assay in all cases: SPR (ProteOn), DARPin captured by anti-RGS-His antibody, albumin injected
human serum albumin = target: T1, human serum albumin (human, UniProt P02768 25-609)
T1 construct: also called HSA
Procedure: (§1) DARPins with binding specificity for xSA were immobilized in a flow cell via their His-tag to coated α-RGS-His antibody (Qiagen, cat. no. 34650), and the interaction of human, cynomolgus monkey (cyno), mouse, rat, rabbit and dog serum albumin with the immobilized DARPins were analyzed.
(§2) SPR was measured using a ProteOn instrument (BioRad) and measurement was performed according standard procedures known to the person skilled in the art. The running buffer was PBS, pH 7.4, containing 0.01% Tween 20®. Anti-RGS-His antibody was covalently immobilized on a GLC chip (BioRad) to a level of about 2000 resonance units (RU). Immobilization of DARPins on the antibody coated chip was then performed by injecting 150 μl of 1 μM DARPin solution in 300 s (flow rate=30 μl/min). The interaction with serum albumin of the different species was then measured by injecting in 60 sec a volume of 100 μl running buffer (PBS containing 0.01% Tween®) containing a distinct serum albumin at a concentration of 400, 200, 100, 50 nM (on-rate measurement), followed by a running buffer flow for 10 to 30 minutes (flow rate=100 μl/min) (off-rate measurement). The signals (i.e. resonance unit (RU) values) of an uncoated reference cell and a reference injection (i.e. injection of running buffer only) were subtracted from the RU traces obtained after injection of the serum albumins (double-referencing). From the SRP traces obtained from the on-rate and off-rate measurements the on- and off-rate of the corresponding DARPin serum albumin interaction can be determined.
(§3) While human and cynomolgus monkey serum albumin are bound by all DARPins analyzed, rabbit, mouse, rat and dog serum albumin is only bound by a subset of these DARPins.

mouse serum albumin = target: T2, mouse serum albumin (mouse, UniProt P07724 25-608)
T2 construct: also called MSA
Procedure: as §1, §2, §3

rabbit serum albumin = rabbit serum albumin (rabbit, UniProt P49065 25-608)
Procedure: as §1, §2, §3

dog serum albumin = dog serum albumin (dog, UniProt P49822 25-608)
Procedure: as §1, §2, §3

[1] = target: T3, cynomolgus monkey serum albumin (cynomolgus monkey (macaca fascicularis), UniProt A2V9Z4 25-608)
T3 construct: also called CSA
Procedure: as §1, §2, §3

rat serum albumin = rat serum albumin (rat, UniProt P02770 25-608)
Procedure: as §1, §2, §3

Sequence of rabbit serum albumin (P49065 25-608 limits assumed): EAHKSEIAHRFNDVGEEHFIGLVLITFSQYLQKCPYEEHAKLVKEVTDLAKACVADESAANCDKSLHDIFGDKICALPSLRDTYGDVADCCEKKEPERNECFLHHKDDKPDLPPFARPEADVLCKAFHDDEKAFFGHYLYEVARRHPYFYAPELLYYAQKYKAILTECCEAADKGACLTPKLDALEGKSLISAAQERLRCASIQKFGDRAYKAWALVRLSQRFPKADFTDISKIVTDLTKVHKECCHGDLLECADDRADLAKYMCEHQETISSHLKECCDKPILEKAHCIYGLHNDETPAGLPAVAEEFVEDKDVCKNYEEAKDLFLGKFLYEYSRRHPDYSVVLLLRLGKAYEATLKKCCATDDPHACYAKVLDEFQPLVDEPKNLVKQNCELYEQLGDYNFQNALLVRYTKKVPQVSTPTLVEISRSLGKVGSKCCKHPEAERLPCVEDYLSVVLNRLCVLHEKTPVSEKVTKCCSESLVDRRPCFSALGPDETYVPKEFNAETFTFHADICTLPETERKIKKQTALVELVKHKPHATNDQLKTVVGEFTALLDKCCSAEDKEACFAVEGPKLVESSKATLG
Sequence of dog serum albumin (P49822 25-608 limits assumed): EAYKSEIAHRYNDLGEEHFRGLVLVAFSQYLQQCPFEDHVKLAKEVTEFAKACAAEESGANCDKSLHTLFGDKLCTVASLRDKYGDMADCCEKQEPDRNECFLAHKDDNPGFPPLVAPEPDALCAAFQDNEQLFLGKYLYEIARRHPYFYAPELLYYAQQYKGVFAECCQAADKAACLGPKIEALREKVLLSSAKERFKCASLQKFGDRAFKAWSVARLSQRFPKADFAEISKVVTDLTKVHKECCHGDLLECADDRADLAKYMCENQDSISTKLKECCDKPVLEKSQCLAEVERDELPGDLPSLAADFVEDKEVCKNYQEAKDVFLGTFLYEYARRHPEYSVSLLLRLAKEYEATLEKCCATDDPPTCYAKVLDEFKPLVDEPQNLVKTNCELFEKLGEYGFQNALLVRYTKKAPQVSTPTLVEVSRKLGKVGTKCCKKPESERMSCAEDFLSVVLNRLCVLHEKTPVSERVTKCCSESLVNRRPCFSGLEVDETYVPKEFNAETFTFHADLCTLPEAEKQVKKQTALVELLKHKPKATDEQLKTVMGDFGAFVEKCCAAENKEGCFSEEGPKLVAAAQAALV
Sequence of rat serum albumin (P02770 25-608 limits assumed): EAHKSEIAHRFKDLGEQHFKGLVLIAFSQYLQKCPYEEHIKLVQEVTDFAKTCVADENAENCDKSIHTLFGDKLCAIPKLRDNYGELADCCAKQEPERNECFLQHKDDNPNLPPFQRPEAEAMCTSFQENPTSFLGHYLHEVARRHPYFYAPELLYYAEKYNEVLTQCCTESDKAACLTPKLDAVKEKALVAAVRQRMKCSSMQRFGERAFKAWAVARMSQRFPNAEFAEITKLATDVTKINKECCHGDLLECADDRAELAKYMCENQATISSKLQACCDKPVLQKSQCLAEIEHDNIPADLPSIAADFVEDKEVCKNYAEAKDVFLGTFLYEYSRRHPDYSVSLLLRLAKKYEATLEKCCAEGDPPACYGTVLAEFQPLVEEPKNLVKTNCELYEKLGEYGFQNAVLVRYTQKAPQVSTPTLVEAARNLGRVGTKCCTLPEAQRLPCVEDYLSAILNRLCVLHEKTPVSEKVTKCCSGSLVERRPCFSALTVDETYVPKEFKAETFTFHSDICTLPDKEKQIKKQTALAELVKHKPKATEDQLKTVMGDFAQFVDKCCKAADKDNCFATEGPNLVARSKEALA
T1 sequence (P02768 25-609 limits assumed): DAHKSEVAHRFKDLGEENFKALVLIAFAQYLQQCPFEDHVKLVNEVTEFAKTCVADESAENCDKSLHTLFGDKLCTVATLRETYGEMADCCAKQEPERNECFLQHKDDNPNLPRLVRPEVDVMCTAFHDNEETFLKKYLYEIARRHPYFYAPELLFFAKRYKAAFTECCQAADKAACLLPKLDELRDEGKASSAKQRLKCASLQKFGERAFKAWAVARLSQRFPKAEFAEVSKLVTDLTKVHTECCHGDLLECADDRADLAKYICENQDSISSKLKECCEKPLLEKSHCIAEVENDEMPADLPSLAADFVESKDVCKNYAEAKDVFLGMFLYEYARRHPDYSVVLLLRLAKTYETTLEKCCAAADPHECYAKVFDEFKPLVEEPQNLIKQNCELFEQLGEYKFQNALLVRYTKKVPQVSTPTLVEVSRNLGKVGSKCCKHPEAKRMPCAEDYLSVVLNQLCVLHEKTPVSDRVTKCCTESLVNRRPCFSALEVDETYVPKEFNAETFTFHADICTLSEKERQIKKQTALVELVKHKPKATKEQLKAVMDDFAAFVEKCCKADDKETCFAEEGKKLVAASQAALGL
T3 sequence (A2V9Z4 25-608 limits assumed): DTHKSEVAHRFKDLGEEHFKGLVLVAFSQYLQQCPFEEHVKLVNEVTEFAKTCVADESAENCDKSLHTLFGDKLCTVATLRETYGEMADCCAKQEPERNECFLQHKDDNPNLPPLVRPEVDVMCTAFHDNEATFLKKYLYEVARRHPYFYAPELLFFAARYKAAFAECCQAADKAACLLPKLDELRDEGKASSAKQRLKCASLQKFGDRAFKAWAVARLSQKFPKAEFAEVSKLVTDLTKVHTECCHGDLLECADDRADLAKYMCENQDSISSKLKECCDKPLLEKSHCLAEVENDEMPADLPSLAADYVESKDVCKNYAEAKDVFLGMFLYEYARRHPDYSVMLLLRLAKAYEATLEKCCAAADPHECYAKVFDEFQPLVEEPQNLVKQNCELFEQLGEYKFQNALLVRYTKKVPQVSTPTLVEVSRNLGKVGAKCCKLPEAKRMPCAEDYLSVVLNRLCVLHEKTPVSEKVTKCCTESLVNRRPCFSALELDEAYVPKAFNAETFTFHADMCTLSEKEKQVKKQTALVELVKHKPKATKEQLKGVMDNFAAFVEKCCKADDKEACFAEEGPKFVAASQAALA

B1: DARPin #20 (designed binder)
chain: MRGSHHHHHHGSDLDKKLLEAARAGQDDEVRILMANGADVNAKDYFSHTPLHLAARNGHLKIVEVLLKAGADVNAKDFAGKTPLHLAANDGHLEIVEVLLKHGADVNAQDIFGKTPADIAADAGHEDIAEVLQKLN
Kd (human serum albumin): 27 nM
Kd (mouse serum albumin): 124 nM
binding result (rabbit serum albumin): no binding (tested: up to 400 nM)
Kd (dog serum albumin): 185 nM
Kd [1]: 110 nM
Kd (rat serum albumin): 242 nM

B2: DARPin #43 (designed binder)
chain: B1 chain with D15G, M34L, A35K, N36A
Kd (human serum albumin): 30 nM

B7: DARPin #22 (designed binder)
chain: B1 chain with D15G, K61E
Kd (human serum albumin): 13 nM
Kd (mouse serum albumin): 68 nM
binding result (rabbit serum albumin): no binding (tested: up to 400 nM)
Kd (dog serum albumin): 81 nM
Kd [1]: 74 nM
Kd (rat serum albumin): 109 nM

B9: DARPin #19 (designed binder)
chain: B1 chain with D15G
Kd (human serum albumin): 14 nM
Kd (mouse serum albumin): 56 nM
binding result (rabbit serum albumin): no binding (tested: up to 400 nM)
Kd (dog serum albumin): 77 nM
Kd [1]: 63 nM
Kd (rat serum albumin): 91 nM

B10: DARPin #21 (designed binder)
chain: B1 chain with K61E
Kd (human serum albumin): 26 nM
Kd (mouse serum albumin): 142 nM
binding result (rabbit serum albumin): no binding (tested: up to 400 nM)
Kd (dog serum albumin): 180 nM
Kd [1]: 110 nM
Kd (rat serum albumin): 266 nM

B11: DARPin #29 (designed binder)
chain: MRGSHHHHHHGSDLDKKLLEAARAGQDDEVRILMANGADVNAKDERGTTPLHLAAVYGHLEIVEVLLKAGADVNAKNETGYTPLHLADSSGHLEIVEVLLKHGADVNAQDKSGKTPADLAADAGHEDIAEVLQKLN
Kd (human serum albumin): 15 nM
binding result (mouse serum albumin): no binding (tested: up to 400 nM)
Kd (rabbit serum albumin): 17 nM
binding result (dog serum albumin): no binding (tested: up to 400 nM)
Kd [1]: 7 nM
binding result (rat serum albumin): no binding (tested: up to 400 nM)

B14: DARPin #27 (designed binder)
chain: B11 chain with H102A
Kd (human serum albumin): 11 nM
binding result (mouse serum albumin): no binding (tested: up to 400 nM)
Kd (rabbit serum albumin): 19 nM
binding result (dog serum albumin): no binding (tested: up to 400 nM)
Kd [1]: 6 nM
binding result (rat serum albumin): no binding (tested: up to 400 nM)

The next lines start with the values.

Kd (human serum albumin): 39 nM
B3: DARPin #44 (designed binder)
chain: B1 chain with D15G, I32E, M34L, A35K, N36A

Kd (human serum albumin): 43 nM
B4: DARPin #46 (designed binder)
chain: B1 chain with D15G, I32E, M34L, A35K, N36A, H102A

Kd (human serum albumin): 96 nM
B5: DARPin #47 (designed binder)
chain: B1 chain with M34L, A35K, N36A, H102A

Kd (human serum albumin): 68 nM
B6: DARPin #48 (designed binder)
chain: B1 chain with I32E, M34L, A35K, N36A, H102A

Kd (human serum albumin): 35 nM
B8: DARPin #45 (designed binder)
chain: B1 chain with D15G, M34L, A35K, N36A, H102A

Kd (human serum albumin): 7 nM
binding result (mouse serum albumin): no binding (tested: up to 400 nM)
Kd (rabbit serum albumin): 8 nM
binding result (dog serum albumin): no binding (tested: up to 400 nM)
Kd [1]: 4 nM
binding result (rat serum albumin): no binding (tested: up to 400 nM)
B12: DARPin #30 (designed binder)
chain: B11 chain with H102A, G103S

Kd (human serum albumin): 6 nM
binding result (mouse serum albumin): no binding (tested: up to 400 nM)
Kd (rabbit serum albumin): 9 nM
binding result (dog serum albumin): no binding (tested: up to 400 nM)
Kd [1]: 3 nM
binding result (rat serum albumin): no binding (tested: up to 400 nM)
B13: DARPin #28 (designed binder)
chain: B11 chain with G103S
